We go through three proteins from publication PMC11757143, “Generation and characterization of OX40-ligand fusion protein that agonizes OX40 on T-Lymphocytes” (Frontiers in Immunology, 2024).

“And” between values parts separate entries of the source, which are not always exact repeats. Equal entries are not always repeated.

B1: MBL-OX40L (ligand)
chain: not shown
notes: extracellular TNF homology domain (THD) of mouse OX40L (Tnfsf4), 51Ser-198Leu; Seen as dimer, trimer and hexamer on non-reducing gels; also called OX40L-fusion protein (A)
B2: MBL-scOX40L (ligand)
chain: not shown
notes: extracellular TNF homology domain (THD) of mouse OX40L (Tnfsf4), 51Ser-198Leu; first of three copies; peptide linker; second of three copies; third of three copies; Order N to C: PA, MBL, OX40L, Linker, OX40L, Linker, OX40L, His6; Seen as dimer, trimer and multimers on non-reducing gels; also called OX40L-fusion protein (E); source: Anti PA tag Antibody Beads; not shown: His6, C-terminal, kept
B3: Fc-MBL-OX40L (Fc fusion)
chain: not shown
notes: extracellular TNF homology domain (THD) of mouse OX40L (Tnfsf4), 51Ser-198Leu; Order N to C: Fc, PA, MBL, OX40L; Seen as dimer, hexamer and higher-order multimers on non-reducing gels; also called OX40L-fusion protein (B); not shown: Fc (human IgG1: hinge, CH2, CH3), N-terminal, kept

This data set concerns the molecule itself. As to the kind of experiment: non-reducing SDS-PAGE and immunoblot; recombinant OX40L proteins in Laemmli sample buffer, non-heated/non-reducing, SDS-PAGE, immunoblot with anti-PA tag antibody; oligomers judged by molecular weight.
On to B1, for which the “stoichiometry N” value is 2 and 3 and 6. B2: the “stoichiometry N” value is 2 and 3. With B3 the figure was 2 and 6.
